First the molecules themselves.
B1: F7.33.24-H11 (scFv, not shown: small tags and cut ends)
scFv: EVQLVQSGAEVKKPGASVKVSCKASGYTFTSYWMHWVRQAPGQGLEWMGNVNPSNAGSNYNEKFKNRVTITVDKSASTAYMELSSLRSEDTAVYYCAPHYIGSRPGFAYWGQGTLVTVSSGGGGSGGGGSGGGGSDIVMTQTPLSLSVTPGQPASISCKASQNVGTNIAWYLQKPGQSPQALIYSASYRYSGVPDRFSGSGSGTDFTLKISRVEAEDVGVYYCQQYNSYPLTFGGGTKVEIK
notes: also called S009-F7.33.24 humanized antibody VH2a + VL2
B2: F7.33.24-H12 (scFv, not shown: small tags and cut ends)
scFv: B1 scFv with L172Q
notes: also called S009-F7.33.24 humanized antibody VH2a + VL3
B3: F7.33.24 (scFv, not shown: small tags and cut ends)
scFv: QVQLQQPGTELVKPGASVKLSCKASGYTFTSYWMHWVKQRPGQGLEWIGNVNPSNGGSNYNEKFKNKATLTVDKSSSTADMQLNSLTSEDSAVYYCAPHYIGSRPGFAYWGQGTLVTVSGGGGGSGGGGSGGGGSDIVMTQSQKFMSTSVGDRVSVTCKASQNVGTNIAWYQQKPGQSPKALIYSASYRYSGVPDRFTGSGSGTDFTLTITNVQSEDLAEYFCQQYNSYPLTFGGGTKVEIK
notes: also called S009-F7.33.24 (parental variable regions, in the humanized-antibody ELISA)

Numbering of substitutions follows the chain as printed.

T1 sequence (Q13421 other isoform, or with tags, fused parts or gaps limits assumed): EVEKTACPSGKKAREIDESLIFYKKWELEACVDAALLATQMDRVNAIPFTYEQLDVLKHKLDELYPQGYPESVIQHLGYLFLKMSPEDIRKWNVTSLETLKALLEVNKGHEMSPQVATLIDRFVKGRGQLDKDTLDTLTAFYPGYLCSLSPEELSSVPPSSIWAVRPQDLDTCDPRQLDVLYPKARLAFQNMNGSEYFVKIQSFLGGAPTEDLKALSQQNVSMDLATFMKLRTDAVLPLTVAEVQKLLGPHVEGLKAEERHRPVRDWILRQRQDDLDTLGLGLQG

The first experiment addresses T1, human MSLN-hFc protein (Acro, Cat. No. MSN-H5253) (human, UniProt Q13421 296-580).
T1 construct: the method names the coated protein as human MSLN-hFc (Acro); also called human MSLN full-length protein
In words: ELISA on coated antigen, antibody 1 nM. On the technique in general: In an ELISA, binding on a coated surface is turned into a signal by an enzyme label.
As for B1, the OD450 is 0.57 OD450.
The same measure, in the same setting: as for B2, the figure is 0.58 OD450; as for B3, 0.27 OD450.

For a further experiment, the target named is T2, human MSLN-R3 protein (human, UniProt Q13421 487-598).
T2 construct: also called hMSLN-R3
T2 sequence (Q13421 495-606, form in doubt): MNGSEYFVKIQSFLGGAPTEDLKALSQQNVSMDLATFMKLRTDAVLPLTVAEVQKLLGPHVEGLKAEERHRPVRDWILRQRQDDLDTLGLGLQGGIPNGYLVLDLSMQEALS
The experiment in a line: ELISA on coated antigen, antibody 1 nM.
B1 returned an OD450 of 0.68 OD450.
Still for that read-out and setting: as for B2, the figure is 0.65 OD450; as for B3, 0.71 OD450.

In another experiment the target is T1, human MSLN-hFc protein (Acro, Cat. No. …). In words: ELISA on coated antigen, antibody 10 nM.
B1: the OD450 is 2.18 OD450.
As to B2, the OD450 was found to be 2.28 OD450.
Still for that read-out and setting: as for B3, the figure is 1.63 OD450.

The target in the next experiment is T2, human MSLN-R3 protein. The experiment in a line: ELISA on coated antigen, antibody 10 nM.
Take B1: the OD450 worked out at 1.94 OD450.
In turn, B2 gave an OD450 of 1.95 OD450.
Same read-out and setting: as for B3, the figure is 1.78 OD450.

In the next experiment the target is T1, human MSLN-hFc protein (Acro, Cat. No. …). The experiment in a line: ELISA on coated antigen, antibody 0.1 nM.
Turning to B1, the OD450 stood at 0.09 OD450.
Same read-out and setting: as for B2, the figure is 0.1 OD450; as for B3, 0.06 OD450.

Another experiment shares this target. The experiment in a line: ELISA on coated antigen, antibody 100 nM.
Regarding B1, the OD450 worked out at 2.65 OD450.
In turn, B2 returned an OD450 of 2.65 OD450.
Still for that read-out and setting: as for B3, the figure is 2.58 OD450.

The target of a further experiment is T2, human MSLN-R3 protein. In words: ELISA on coated antigen, antibody 0.1 nM.
As to B1, the OD450 was found to be 0.09 OD450.
B2 displayed an OD450 of 0.09 OD450.
The molecule B3 had an OD450 of 0.09 OD450.

In a further experiment the target is T2, human MSLN-R3 protein. In words: ELISA on coated antigen, antibody 100 nM.
Molecule B1 gave an OD450 of 2.1 OD450.
Still for that read-out and setting: as for B2, the figure is 2.04 OD450; as for B3, 1.92 OD450.

For the next experiment, the target named is T1, human MSLN-hFc protein (Acro, Cat. No. …). In words: ELISA on coated antigen, antibody 0.01 nM.
Molecule B1 had an OD450 of 0.04 OD450.
On the same count and under the same terms, as for B2, the figure is 0.04 OD450; as for B3, 0.21 OD450.

In a further experiment the target is T2, human MSLN-R3 protein. The experiment in a line: ELISA on coated antigen, antibody 0.01 nM.
B1: the OD450 amounted to 0.05 OD450.
B2 had an OD450 of 0.04 OD450.
B3 gave an OD450 of 0.04 OD450.

In the next experiment the target is T1, human MSLN-hFc protein (Acro, Cat. No. …). The experiment in a line: ELISA on coated antigen, antibody 0.001 nM.
Consider B1, for which the OD450 was 0.04 OD450.
For the molecule B2, the OD450 was 0.04 OD450.
In turn, B3 had an OD450 of 0.26 OD450.

For another experiment, the target named is T2, human MSLN-R3 protein. The experiment in a line: ELISA on coated antigen, antibody 0.001 nM.
B1 had an OD450 of 0.04 OD450.
Same read-out and setting: as for B2, the figure is 0.04 OD450.
Consider B3, for which the OD450 was determined as 0.04 OD450.

A further experiment concerns the target T1, human MSLN-hFc protein (Acro, Cat. No. …). The experiment in a line: ELISA on coated antigen, antibody 0.0001 nM.
B1 displayed an OD450 of 0.04 OD450.
On the same count and under the same terms, as for B2, the figure is 0.05 OD450.
On the same count and under the same terms, as for B3, the figure is 0.04 OD450.

For another experiment, the target named is T2, human MSLN-R3 protein. In words: ELISA on coated antigen, antibody 0.0001 nM.
With B1, the OD450 worked out at 0.05 OD450.
The same measure, in the same setting: as for B2, the figure is 0.04 OD450; as for B3, 0.04 OD450.

The values are drawn from patent publication US20250250357A1 (NANJING ZAIMING PHARMACEUTICAL, published 2025).
